Results taken from patent publication US11142588B2, “Polypeptides which bind C-X-C chemokine receptor type 4 (CXCR4) and methods of treating or reducing the risk of fibrosis and cancer” (AdAlta Limited, priority 2015, dated 2021).
Changes are numbered by the printed parent chain. “And” between values parts separate entries of the source, which are not always exact repeats. Identical values can stand only once. “Also recorded” adds a separate entry of the source.

Legend:
[1] = cited from earlier work
[2] = system: white blood cells, LSK and LSKSLAM cells in peripheral blood; test: Stem cell mobilisation in mice after i.v. injection; type: in vivo, mouse; conditions: 1 and 3 hours after i.v. injection, compared to AMD3100
Procedure: After 1 and 3 hours, mice were euthanized and peripheral blood (PB) harvested. Spleens were harvested and weighed to assess for splenomegaly (enlargement of the spleen). Samples were lysed to remove red blood cells and 4000 cells plated for LPP (low-proliferative potential) and CFU-HPP (colony forming unit-high proliferative potential) colonies (colony counting 7 days post-plating). The remaining cells were stained with an antibody cocktail to assess lineage-committed, stem and progenitor cell content. Flow cytometric analysis was used to calculate numbers of lineage-committed cells, haemopoietic stem and progenitor cells as well as enriched HSC per volume of PB.

[3] = Murine air pouch model with SDF-1; type: in vivo, BALB/c mice; conditions: intraperitoneal, 30 minutes before SDF-1 6 μg
Procedure: The ability of i-bodies to block inflammation was evaluated in an in vivo murine air pouch model. The subcutaneous (s.c.) air pouch is an in vivo model used to study acute and chronic inflammation (Durate et al, Models of Inflammation: Carrageenan Air Pouch, Current Protocols in Pharmacology 5.6.1-5.6.8, March 2012). Injection of irritants into an air pouch in rats or mice induces an inflammatory response that can be quantified by the volume of exudate produced, the infiltration of cells, and the release of inflammatory mediators. An air pouch, is generated by injection of sterile air under the skin of the back of the mouse. […] Air pouch lavage fluid is then analyzed for cell trafficking and cytokine release.
The air pouch assay was performed on 7-week-old BALB/c mice. On days 1 and 3, 0.2 ml/g initial body weight (IBW) of sterile air was injected under the back skin to create the pouch. […] Thirty minutes later, SDF-1 (6 μg) was injected into the pouch. Four hours later, the mice were killed in a CO2 chamber and the air pouch was washed. Cells were collected, counted, and characterized by flow cytometry.

CXCR4 [4] = target: T1, CXCR4 (Homo sapiens, UniProt P61073); test: Calcium flux assay (Screen Quest Fluo-8, FLIPR) in antagonist mode; type: cell-based; conditions: SDF-1 at EC80
T1 sequence (P61073 whole entry): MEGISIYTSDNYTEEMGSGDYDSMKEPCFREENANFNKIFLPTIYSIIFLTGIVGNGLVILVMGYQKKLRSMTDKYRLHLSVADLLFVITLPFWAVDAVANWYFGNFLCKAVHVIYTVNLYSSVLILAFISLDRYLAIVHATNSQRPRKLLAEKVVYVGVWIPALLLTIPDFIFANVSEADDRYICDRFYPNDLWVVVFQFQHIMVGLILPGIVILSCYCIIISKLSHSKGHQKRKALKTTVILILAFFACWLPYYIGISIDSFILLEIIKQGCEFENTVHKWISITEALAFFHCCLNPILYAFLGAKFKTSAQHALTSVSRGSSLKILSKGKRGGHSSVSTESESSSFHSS
Procedure: Inhibition of Ca2+ influx by controls or i-bodies (IC50) was then determined.
Mammalian cells stably expressing human CXCR4 receptor were produced in-house by Multispan, Inc (catalog no. C1004-1). Control agonist used was SDF-1 (Peprotech, Cat #300-28A).
Cells were seeded in 384-well plate at an appropriate density and cultured overnight. Calcium assay was conducted according to the manufacturer's protocols. The calcium dye loading buffer was added to the cells and incubated for one hour at 37° C. Calcium flux was monitored for 120 seconds with compound injected into the wells at 19th second. In antagonist mode, carrier or compounds were preincubated with the cells for 30 minutes before calcium flux measurement with the control agonist at EC80 concentration obtained from dose-response curve.

[5] = system: Human platelet rich plasma; test: SDF-1α induced platelet aggregation; type: cell-based; conditions: 10 or 20 ug/mL, 100 nM SDF-1 alpha
Procedure: Experiments were carried out to examine whether the i-bodies could block platelet aggregation induced by SDF-1α. […] In the presence of negative control i-body 21H5 (or the isotype control for 12G5: mouse IgG2a). SDF-1 induced a robust and reproducible aggregation (the descending black curves, which indicate an increase in light transmission), which matches with what has been previously published.

[6] = target: T2, human CXCR4 (CXCR4 positive lipoparticles) (Homo sapiens, UniProt P61073); test: Biacore SPR kinetic binding to immobilised CXCR4 lipoparticles
T2 construct: purchased Integral Molecular LEV-101B
T2 sequence (P61073 whole entry): as above
Procedure: (FIGS. 2A-2C, 5A-5C, 11A-11D, 17A-17B) Kinetic binding analysis of selected i-bodies with immobilized CXCR4 lipoparticles were performed at 25° C. using Biacore T200 instrument (GE Healthcare, Uppsala, Sweden). Streptavidin immobilization was performed in 1×HBS-P+ running buffer (10 mM HEPES, 150 mM NaCl, 0.05% [v/v] Tween-20). […] All binding experiments involving lipoparticles were performed with 1×HBS/BSA (10 mM HEPES, 150 mM NaCl, 1 mg/mL BSA) as instrument running buffer. […] In order to determine binding kinetics, serial dilutions (three-fold) of i-bodies diluted in 1×HBS/BSA were injected over immobilized lipoparticles with the association and dissociation phases monitored for 60 sec and 600 sec, respectively. A control measurement of the instrument running buffer (“zero-buffer” blank) solution was also included for double referencing purposes. Collected experimental data were processed using Scrubber software (www.biologic.com.au). Kinetic parameters (ka=association and kd=dissociation rate constants) and equilibrium dissociation constant (KD=kd/ka) were derived by fitting each set of experimental data to a Langmuir 1:1 binding model. All interaction measurements were performed in triplicate and the derived binding parameters reported as averaged values±standard deviation.

CXCR4 [7] = target: T1, CXCR4; test: β-arrestin BRET assay, antagonist mode with 100 nM SDF-1; type: cell-based; parameters: expressed in transfected cells; host or cells: HEK293FT; conditions: only an order of magnitude is printed in the cell
Excerpt: (FIGS. 3A-3F and 14) BRET was used in this study to assess the real-time kinetic profiles resulting from any consequent increase in proximity, building upon the previously validated monitoring of GPCR/β-arrestin interactions utilizing BRET. BRET occurs between a complementary Renilla luciferase (Rluc) variant as donor and green fluorescent protein variant as acceptor. Upon Rluc-catalyzed oxidation of the coelenterazine substrate (such as coelenterazine h for first generation BRET (BRET) or EnduRen for extended BRET (eBRET), energy is transferred to the acceptor if within 10 nm, resulting in acceptor light emission peaking at a characteristic wavelength. BRET (3-arrestin assays were carried out as described previously (See, H. B., Seeber, R. M., Kocan, M., Eidne, K. A. and Pfleger, K. D. (2011) ‘Application of G protein-coupled receptor-heteromer identification technology to monitor beta-arrestin recruitment to G protein-coupled receptor heteromers’, Assay Drug Dev Technol, 9(1), 21-30, 10.1089/adt.2010.0336). CXCR4/Rluc8 cDNA constructs were generated from plasmids containing the respective receptor cDNA tagged with Rluc kindly provided by Aron Chakera (Oxford University, United Kingdom). The β-arrestin 2/Venus cDNA construct was prepared previously from pCS2-Venus kindly provided by Atsushi Miyawaki (RIKEN Brain Science Institute, Wako-city, Japan). BRET technology in cells transiently expressing CXCR4/Rluc8 and β-arrestin2/Venus in the presence of 100 nM SDF-1 agonist was evaluated in the presence of the CXCR4 agonist SDF-1/CXCL12 and the i-bodies. HEK293FT cells were maintained at 37° C., 5% CO2 in Complete Media (Dulbecco's modified Eagle's medium containing 0.3 mg/mL glutamine, 100 IU/mL penicillin, and […] streptomycin; Gibco) supplemented with 10% fetal calf serum (FCS) and […] Geneticin (Gibco). Transfections were carried out 24 h after seeding using Genejuice (Novagen) according to manufacturer's instructions. Cells were harvested with 0.05% Trypsin-EDTA (Gibco). HEK293FT cells were transfected using FuGene6 (Promega). 5 μM coelenterazine h (Promega) in HBSS was used as the luciferase substrate solution. Cells were harvested 24 h post-transfection in HEPES-buffered phenol red-free Complete Medium containing 5% FCS and added to a poly-L-lysine-coated white 96-well plate (Nunc). Dose-response curves were generated using BRET, with medium in the plate being replaced with PBS containing […] coelenterazine h (Molecular Probes) and assays carried out immediately. For these assays, 48 h post-transfection, the plate was incubated at […], 5% CO2 for 2 h with […] EnduRen (Promega) to ensure substrate equilibrium was reached. All BRET measurements were taken at 37° C. using the VICTOR Light plate reader with Wallac 1420 software (PerkinElmer). Filtered light emissions were sequentially measured at 400-475 and 520-540 nm. The BRET signal was calculated by subtracting the ratio of 520-540 nm emission over 400-475 nm emission for a vehicle-treated cell sample from the same ratio for a second aliquot of the same cells treated with agonist (in this instance in the presence of SDF-1 or CXCL12) and i-body (ADCX-99, ADCX-272, ACDX-6, ACDX-306, ADCX-668) at various concentrations. Data are mean±S.E.M. of four independent experiments carried out in duplicate.
Binding of the i-bodies to CXCR4 were examined in a β-Arrestin BRET assay as described in See, Heng B et al (2011) Assay and Drug Development Technologies 9(1):21-30. The i-bodes were examined at ten concentrations with and without 100 nM SDF-1 with the addition of ‘vehicle’ and ‘SDF-1+vehicle’ controls in order to characterise if the i-bodies are agonist or antagonists of CXCR4 activity.

CCR4 = target: T3, CCR4 (Homo sapiens, UniProt P51679); test: PathHunter (DiscoverX) β-arrestin assay, CCR4; type: cell-based
T3 sequence (P51679 1-360): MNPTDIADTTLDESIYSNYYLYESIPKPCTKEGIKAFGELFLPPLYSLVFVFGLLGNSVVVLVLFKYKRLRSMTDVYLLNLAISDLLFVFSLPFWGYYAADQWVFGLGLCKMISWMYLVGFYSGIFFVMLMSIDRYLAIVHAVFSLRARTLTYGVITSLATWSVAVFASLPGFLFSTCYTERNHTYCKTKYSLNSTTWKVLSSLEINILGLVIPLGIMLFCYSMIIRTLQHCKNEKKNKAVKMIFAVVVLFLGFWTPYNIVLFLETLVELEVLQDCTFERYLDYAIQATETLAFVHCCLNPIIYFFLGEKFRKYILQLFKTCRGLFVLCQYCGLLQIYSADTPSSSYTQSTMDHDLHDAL
Procedure: (FIG. 9) The PathHunter® β-Arrestin assay (DiscoveRx) was performed according to the manufacturer's protocol. Cells were seeded into white walled, 384-well tissue culture-treated microplates (Corning) and normalized at 5,000 cells (or 10,000 cells for CXCR4) in a total volume of […]. Cell growth was at 37° C. (5% CO2, 95% relative humidity). […] Agonists were then added at the EC80 concentration and incubation was continued at 37° C. for 90 min (or 180 min for CCR1). Assay signal was generated through a single addition of 15 μL (50% v/v) of PathHunter Detection reagent cocktail, followed by 1 h incubation at room temperature. Microplates were read following signal generation with a PerkinElmer Envision instrument for chemiluminescent signal detection of relative light units (RLU).

[8] = CXCR4 expressed on lipoparticles (Table 4)
[9] = off-rate, CXCR4 expressed on lipoparticles (Table 3)

c1ccc(CNCc2ccc(CN3CCCNCCNCCCNCC3)cc2)nc1 [AMD3465]
effectiveness relative to AMD3100 at releasing neutrophils from the bone marrow ([1]; Hatse et al 2005): 10 fold | diet-induced atherosclerotic lesion development ([1]; long-term inhibition, Apoe−/− and Ldlr−/− mice, Zernecke et al 2008): aggravated diet-induced atherosclerotic lesion development

B1: AM4-746: affinity matured CXCR4 i-body, SEQ ID NO: 76 (protein)
chain: LQVDIVPSQGEISVGESKFFLCQVAGSKSNIRISWFSPNGEKLTPNQQRISVVWNDDSSSTLTIYNANIDDAGIYKCVVYRTGGYRHRYLKLGEATVNVKIFQ
modifications: protein sequence encoding AM4-746
mobilisation of white blood cells [2]: No mobilisation | cell migration / leukocyte infiltration into the air pouch [3]: inhibiting leukocyte infiltration; also recorded: inhibited cell migration | Calcium Inhibition EC50 (CXCR4 [4]): uM | blocking of SDF-1α induced platelet aggregation [5]: blocked aggregation to the same extent as the MAb12G5 | Ka [6, 8]: 2.5e+06 M⁻¹ s⁻¹

B2: AM4-1121: affinity matured CXCR4 i-body, SEQ ID NO: 48 (protein)
chain: B1 chain with N30G, K91R
modifications: protein sequence encoding AM4-1121
mobilisation of white blood cells [2]: No mobilisation | cell migration / leukocyte infiltration into the air pouch [3]: inhibiting leukocyte infiltration; also recorded: inhibited cell migration | Calcium Inhibition EC50 (CXCR4 [4]): uM | blocking of SDF-1α induced platelet aggregation [5]: most effective; also recorded: most efficient | Ka [6, 8]: 1.289e+06 M⁻¹ s⁻¹ and 1.42e+06 M⁻¹ s⁻¹ | dissociation rate constant (kd) [6, 8]: 9290 M⁻¹ s⁻¹ and 9540 M⁻¹ s⁻¹ | dissociation rate constant (kd) [6, 9]: 0.1153

B3: AM5-245: affinity matured CXCR4 i-body, SEQ ID NO: 68 (protein)
chain: B1 chain with V24A, K28G, N30H, Y80W, Y89A, K91V
modifications: protein sequence encoding AM5-245
IC50 in β-Arrestin BRET assay (Antagonist mode in the presence of 100 nM SDF-1) (CXCR4 [7]): ~uM | Ka [6, 8]: 813000 M⁻¹ s⁻¹ and 771000 M⁻¹ s⁻¹ | dissociation rate constant (kd) [6, 8]: 12100 M⁻¹ s⁻¹ and 12300 M⁻¹ s⁻¹ | dissociation rate constant (kd) [6, 9]: 0.01445 | CCR4 activity (CCR4): −5%
